Experimental data reported in patent US12715902B2 (dated 2026).

Columns and labels:
Experiment in all cases: cytokine release
[1] = molecular target: T1, ATM G2695V peptide on HLA-A*03:01 (human)
T1 peptide: LAGVVNLPK
From the text: (§1) To confirm the specificity and activity of nucleic acid encoding TCRs against ATM and ARID1A, each of the codon optimized nucleic acids were introduced into donor T cells. The chimeric TCR-transduced T cells (TRBV9*01+TRAV14/DV4 chimeric TCR) were co-cultured with dendritic cells expressing wildtype ATM or mutated forms of ATM (G2695V, G2695A, G2695C, or G2695S). The chimeric TCR-transduced T cells (TRBV25-1+TRAV20 chimeric TCR) were co-cultured with dendritic cells expressing wildtype ARID1A or ARID1A H1960fs. After overnight incubation, the supernatant was assessed for production of interferon-gamma using an ELISA. […] See FIGS. 9A and 9B, respectively.

[2] = molecular target: T2, ATM G2695A peptide on HLA-A*03:01 (human)
T2 peptide: LAGAVNLPK
From the text: as §1

[3] = molecular target: T3, ATM G2695C peptide on HLA-A*03:01 (human)
T3 peptide: LAGCVNLPK
From the text: as §1

[4] = molecular target: T4, ATM G2695S peptide on HLA-A*03:01 (human)
T4 peptide: LAGSVNLPK
From the text: as §1

[5] = molecular target: T5, ATM wild type (glycine at 2695) peptide on HLA-A*03:01 (human)
T5 peptide: LAGGVNLPK
From the text: as §1

- binding result [1]: recognises
- binding result [2]: recognises
- binding result [3]: recognises
- binding result [4]: recognises
- binding result [5]: no recognition
B1: TRBV9*01+TRAV14/DV4 TCR (TCR, V domains shown)
Valpha: AQKITQTQPGMFVQEKEAVTLDCTYDTSDQSYGLFWYKQPSSGEMIFLIYQGSYDEQNATEGRYSLNFQKARKSANLVISASQLGDSAMYFCAMREQGAQKLVFGQGTRLTINP
Vbeta: DSGVTQTPKHLITATGQQVTLRCSPRSGDLSVYWYQQSLDQGLQFLIQYYNGEERAKGNILERFSAQQFPDLHSELNLSSLELGDSALYFCASSAAVHYGYTFGSGTRLTVV
